For test [1], the target named is T1, rHuman ErbB2/Fc Chimera, CF (Cat# 1129-ER) (human, UniProt P04626 23-652).
T1 construct: Bought from R&D Systems; also called human epidermal growth factor 2 receptor (ErbB2)
As to the kind of experiment: Multispot ECL; Fab 130 nM. The protocol: (§1) An 150 μl aliquot of 1% Bovine Serum Albumin (BSA) in Tris-buffered Saline Tween (TBST) was added to each well and allowed to incubate for 30 min at 20° C. followed by washing and tap drying to completely remove any residual solution. Subsequently, a 12.5 μl aliquot of 1% BSA TBST was added to each well followed by the addition of a 12.5 μl aliquot of a purified Fab. The plate was sealed and incubated for 1 hour at 20° C. with shaking.
(§2) Detection antibodies were prepared by individually conjugating both goat anti-human Kappa light chain polyclonal antibody (K3502-1MG, Sigma-Aldrich) and goat anti-human Lambda light chain polyclonal antibody (L1645-1 mL, Sigma-Aldrich) with Ruthenium (II) tris-bipyridine-(4-methylsulfone)-N-hydroxysuccinimide (SULFO-TAG NHS-ester, Meso Scale Discovery) according to the manufacturer's instructions. TAG-detection antibody at 25 μl was added to each well and allowed to incubate for 1 hour at 20° C. with shaking. Finally, 15 μl of Read Buffer P with Surfactant (Cat # R92PC-1, Meso Scale Discovery) was added to each well. The electrochemiluminescence was measured using a Sector Imager 2400 (Meso Scale Discovery). Data was analyzed by comparing the ECL signals for an antigen to the blank of each well. A signal to blank ratio of 4 or more was considered a “Hit” Fab.
(§3) To confirm a “Hit” from the initial Multispot ECL screening, a Fab concentration dependent titration was carried out to determine the Fab-antigen binding affinity.

The target in test [2] is T2, rHuman Notch-1/Fc Chimera, CF (Cat# 3647-TK) (human, UniProt P46531 19-526).
T2 construct: Bought from R&D Systems
Briefly: Multispot ECL; Fab 130 nM. The protocol:
as §1, §2, §3

Test [3] has as its target T3, rHuman IGF-1 sR, (IGF-1 sR), CF (Cat# 391-GR) (human, UniProt P08069 31-932).
T3 construct: Bought from R&D Systems; also called insulin-like growth factor-1 soluble receptor
As to the kind of experiment: Multispot ECL; Fab 130 nM. The protocol: as §1, §2, §3

The target of test [4] is T4, rHuman Erythropoietin R/Fc Chimera, CF (Cat# 963-ER) (human, UniProt P19235 25-250).
T4 construct: Bought from R&D Systems; also called EPO R/Fc; Epo R/Fc chimera
T4 sequence (looked up): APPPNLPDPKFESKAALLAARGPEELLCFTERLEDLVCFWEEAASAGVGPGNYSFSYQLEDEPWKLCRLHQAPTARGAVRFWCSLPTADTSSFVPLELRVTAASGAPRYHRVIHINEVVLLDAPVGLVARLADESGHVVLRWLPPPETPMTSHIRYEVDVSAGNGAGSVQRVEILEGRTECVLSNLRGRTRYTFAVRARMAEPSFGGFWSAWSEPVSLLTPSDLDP
As to the kind of experiment: Multispot ECL; Fab 130 nM. The protocol:
as §1, §2, §3

Test [5] concerns the target T5, Recombinant Human DLL4 (Cat# 1506-D4/CF) (human, UniProt Q9NR61 27-529).
T5 construct: Bought from R&D Systems; also called rHuman DLL4; hDLL4
As to the kind of experiment: Multispot ECL; Fab 130 nM. The protocol: as §1, §2, §3

In test [6] the target is T1, rHuman ErbB2/Fc Chimera, CF (Cat# …). Briefly: Multispot ECL; Fab 8.1 nM. How it is done:
as §1, §2, §3

For test [7], the target named is T6, rHuman EGF R/Fc Chimera, CF (Cat# 344-ER) (human, UniProt P00533 25-645).
T6 construct: Bought from R&D Systems; also called epidermal growth factor receptor (EGF R)
Briefly: Multispot ECL; Fab 8.1 nM. How it is done:
as §1, §2, §3

The target in test [8] is T7, rHuman HGF R/c-MET/Fc Chimera, CF (Cat# 358-MT/CF) (human, UniProt P08581 25-932).
T7 construct: Bought from R&D Systems; also called HGF R/Fc; hepatocyte growth factor receptor (HGF R/c-Met)
Briefly: Multispot ECL; Fab 8.1 nM. The protocol:
as §1, §2, §3

For test [9], the target named is T2, rHuman Notch-1/Fc Chimera, CF (Cat# …). As to the kind of experiment: Multispot ECL; Fab 8.1 nM. How it is done:
as §1, §2, §3

Test [10] has as its target T8, rHuman CD44/Fc Chimera, CF (Cat# 3660-CD) (human, UniProt P16070 21-220).
T8 construct: Bought from R&D Systems
As to the kind of experiment: Multispot ECL; Fab 8.1 nM. How it is done:
as §1, §2, §3

Test [11] deals with T3, rHuman IGF-1 sR, (IGF-1 sR), CF (Cat# …). As to the kind of experiment: Multispot ECL; Fab 8.1 nM. The protocol: as §1, §2, §3
The target in test [12] is T4, rHuman Erythropoietin R/Fc Chimera, CF …. Briefly: Multispot ECL; Fab 8.1 nM. How it is done: as §1, §2, §3
Test [13] addresses T5, Recombinant Human DLL4 (Cat# 1506-D4/CF). Briefly: Multispot ECL; Fab 8.1 nM. How it is done:
as §1, §2, §3

B1: Fab VH1-8_IGHD2-2*01_IGHJ6*01 & L12_IGKJ1*01 (Fab, V domains shown)
VH: QVQLVQSGAEVKKPGASVKVSCKASGYTFTSYDINWVRQATGQGLEWMGWMNPNSGNTGYAQKFQGRVTMTRNTSISTAYMELSSLRSEDTAVYYCARGGYCSSTSCYADYYYYYGMDVWGQGTTVTVSS
VL: not shown
As to B1, the ECL signal in test [1] worked out at 1530; in [2], 1760; in test [3] it was 1970; in [4], 2150; in test [5] it was 7740; in test [6], 557. Besides, the ECL signal in test [7] is 560; in test [8] it was 551; in test [9], 612; in test [10] it was 528; in test [11], 518; in [12], 660. Further, in test [13], the ECL signal came out at 1550.

For the origin of these results see patent publication US20110318339A1 (FABRUS, published 2011).
